Test results from US20190218292A1 (LABORATOIRE FRAN AIS DU FRACTIONNEMENT ET DES BIOT …, published 2019).

Legend:
murine PD1 antigen = target: T1, murine PD1 antigen (murine, UniProt Q02242 25-167, limits assumed); assay: ELISA, coated murine PD1
T1 sequence (looked up): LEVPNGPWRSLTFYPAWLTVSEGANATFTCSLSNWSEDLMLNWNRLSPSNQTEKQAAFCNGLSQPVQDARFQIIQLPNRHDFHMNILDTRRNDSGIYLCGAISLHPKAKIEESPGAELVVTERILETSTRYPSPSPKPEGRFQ

[1] = target: T2, cynomolgus monkey PD1 antigen (cynomolgus monkey, UniProt B0LAJ3 25-170); assay: ELISA, coated cynomolgus PD1
T2 construct: also called cynomolgus PD1
T2 sequence (B0LAJ3 entry or part of it limits assumed, form in doubt): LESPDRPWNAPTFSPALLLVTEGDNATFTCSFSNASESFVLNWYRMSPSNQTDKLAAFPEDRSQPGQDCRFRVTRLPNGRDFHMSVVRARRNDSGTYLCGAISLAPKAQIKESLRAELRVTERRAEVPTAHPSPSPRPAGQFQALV

B1: IgG1_WT nivolumab (antibody, V domains shown)
VH: QVQLVESGGGVVQPGRSLRLDCKASGITFSNSGMHWVRQAPGKGLEWVAVIWYDGSKRYYADSVKGRFTISRDNSKNTLFLQMNSLRAEDTAVYYCATNDDYWGQGTLVTVSS
VL: EIVLTQSPATLSLSPGERATLSCRASQSVSSYLAWYQQKPGQAPRLLIYDASNRATGIPARFSGSGSGTDFTLTISSLEPEDFAVYYCQQSSNWPRTFGQGTKVEIK
OD 450 nm at 0.2 µg/ml (murine PD1 antigen): 0.305 OD 450 nm
OD 450 nm at 0.2 µg/ml [1]: 2.39 OD 450 nm
